Key:
AncSZ = assay: phosphorylation enrichment, bacterial display (enrichment ratio); higher = better substrate or ligand; peptides without Tyr show the background
EPHB1 = EPHB1 (UniProt P54762); assay: as above
EPHB2 = EPHB2 (UniProt P29323); assay: as above
FGFR1 = FGFR1 (UniProt P11362); assay: as above
FGFR3 = FGFR3 (UniProt P22607); assay: as above
Fer (mouse) = assay: as above
Fes = Fes (UniProt P07332); assay: as above
Fyn = Fyn (UniProt P06241); assay: as above
Hck = Hck (UniProt P08631); assay: as above
Jak2 = Jak2 (UniProt O60674); assay: as above
MERTK = MERTK (UniProt Q12866); assay: as above
c-Abl (mouse) = assay: as above
c-Src = assay: as above
Grb2 SH2 = Grb2 SH2 (UniProt P62993); assay: SH2 binding enrichment of the phosphorylated peptide, bacterial display (enrichment ratio); higher = better substrate or ligand; peptides without Tyr show the background
SHP2-C SH2 = assay: as above
c-Src SH2 = assay: as above
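For SH2 binding enrichment of the phosphorylated peptide, bacterial display in this document: peptide library displayed on the E. coli surface as eCPX fusions, selected cells deep-sequenced, score is each peptide's frequency after selection divided by its frequency in the input.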
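For phosphorylation enrichment, bacterial display in this document: 11-residue human phosphosite peptides and single-mutation variants displayed on the E. coli surface, counted by deep sequencing, each peptide's frequency after selection divided by its frequency in the unselected input library; frequency after pTyr selection over input frequency; kinase dosed for 20-30% of maximal phosphorylation in three min.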

Chain of Fyn (P06241 whole entry, looked up): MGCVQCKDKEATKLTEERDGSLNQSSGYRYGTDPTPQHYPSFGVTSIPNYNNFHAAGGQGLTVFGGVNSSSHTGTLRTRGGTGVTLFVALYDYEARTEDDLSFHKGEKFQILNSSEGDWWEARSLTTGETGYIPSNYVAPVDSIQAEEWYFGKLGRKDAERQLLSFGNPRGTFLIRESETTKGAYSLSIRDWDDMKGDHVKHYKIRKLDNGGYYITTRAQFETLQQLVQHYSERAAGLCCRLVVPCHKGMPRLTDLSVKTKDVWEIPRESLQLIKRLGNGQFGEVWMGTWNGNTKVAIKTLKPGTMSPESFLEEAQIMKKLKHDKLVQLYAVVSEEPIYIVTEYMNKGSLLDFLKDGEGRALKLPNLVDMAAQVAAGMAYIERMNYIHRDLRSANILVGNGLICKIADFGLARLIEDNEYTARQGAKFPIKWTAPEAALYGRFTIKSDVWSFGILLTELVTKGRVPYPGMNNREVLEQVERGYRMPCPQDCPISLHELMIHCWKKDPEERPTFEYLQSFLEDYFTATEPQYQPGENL
Chain of Hck (P08631 whole entry, looked up): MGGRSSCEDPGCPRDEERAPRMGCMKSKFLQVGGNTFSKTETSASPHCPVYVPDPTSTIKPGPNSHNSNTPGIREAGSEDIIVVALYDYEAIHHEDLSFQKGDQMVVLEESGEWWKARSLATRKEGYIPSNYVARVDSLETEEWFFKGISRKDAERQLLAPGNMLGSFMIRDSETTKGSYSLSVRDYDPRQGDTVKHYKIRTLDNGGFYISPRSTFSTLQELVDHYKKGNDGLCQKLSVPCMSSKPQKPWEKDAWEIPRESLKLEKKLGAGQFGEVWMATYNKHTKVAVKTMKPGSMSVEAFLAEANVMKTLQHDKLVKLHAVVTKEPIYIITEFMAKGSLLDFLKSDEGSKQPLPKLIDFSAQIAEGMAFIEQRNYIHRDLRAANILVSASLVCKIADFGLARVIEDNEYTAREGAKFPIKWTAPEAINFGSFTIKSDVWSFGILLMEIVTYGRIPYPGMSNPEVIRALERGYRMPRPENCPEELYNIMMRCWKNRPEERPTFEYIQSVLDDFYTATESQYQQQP
Chain of EPHB2 (P29323 whole entry, looked up): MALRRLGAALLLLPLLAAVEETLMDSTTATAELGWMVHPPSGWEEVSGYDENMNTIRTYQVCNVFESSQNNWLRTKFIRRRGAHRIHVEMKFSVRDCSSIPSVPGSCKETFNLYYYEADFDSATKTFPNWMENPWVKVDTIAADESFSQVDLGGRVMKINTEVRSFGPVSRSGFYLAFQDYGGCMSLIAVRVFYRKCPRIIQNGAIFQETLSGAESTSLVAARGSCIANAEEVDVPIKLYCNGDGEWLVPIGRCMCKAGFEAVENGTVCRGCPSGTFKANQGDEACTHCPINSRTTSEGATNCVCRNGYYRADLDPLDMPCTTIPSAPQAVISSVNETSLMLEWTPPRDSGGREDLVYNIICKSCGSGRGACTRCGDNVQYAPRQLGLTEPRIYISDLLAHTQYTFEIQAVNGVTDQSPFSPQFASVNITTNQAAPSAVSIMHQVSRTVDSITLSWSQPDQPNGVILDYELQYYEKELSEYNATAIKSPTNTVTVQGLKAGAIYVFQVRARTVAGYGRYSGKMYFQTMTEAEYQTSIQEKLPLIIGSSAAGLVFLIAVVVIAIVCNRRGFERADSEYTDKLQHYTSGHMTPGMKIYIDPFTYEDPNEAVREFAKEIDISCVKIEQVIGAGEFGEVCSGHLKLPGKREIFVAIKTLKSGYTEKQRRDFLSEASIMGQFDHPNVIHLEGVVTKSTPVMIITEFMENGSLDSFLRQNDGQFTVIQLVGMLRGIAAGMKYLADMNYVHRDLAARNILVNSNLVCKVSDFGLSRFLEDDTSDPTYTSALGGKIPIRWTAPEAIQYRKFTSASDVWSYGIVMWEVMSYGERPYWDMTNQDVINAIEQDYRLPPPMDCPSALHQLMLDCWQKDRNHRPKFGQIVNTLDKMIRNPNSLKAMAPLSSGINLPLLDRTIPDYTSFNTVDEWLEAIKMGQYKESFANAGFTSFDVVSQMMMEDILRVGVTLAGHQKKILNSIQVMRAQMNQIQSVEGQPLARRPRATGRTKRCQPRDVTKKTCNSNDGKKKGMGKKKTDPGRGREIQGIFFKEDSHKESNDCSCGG
Chain of MERTK (Q12866 whole entry, looked up): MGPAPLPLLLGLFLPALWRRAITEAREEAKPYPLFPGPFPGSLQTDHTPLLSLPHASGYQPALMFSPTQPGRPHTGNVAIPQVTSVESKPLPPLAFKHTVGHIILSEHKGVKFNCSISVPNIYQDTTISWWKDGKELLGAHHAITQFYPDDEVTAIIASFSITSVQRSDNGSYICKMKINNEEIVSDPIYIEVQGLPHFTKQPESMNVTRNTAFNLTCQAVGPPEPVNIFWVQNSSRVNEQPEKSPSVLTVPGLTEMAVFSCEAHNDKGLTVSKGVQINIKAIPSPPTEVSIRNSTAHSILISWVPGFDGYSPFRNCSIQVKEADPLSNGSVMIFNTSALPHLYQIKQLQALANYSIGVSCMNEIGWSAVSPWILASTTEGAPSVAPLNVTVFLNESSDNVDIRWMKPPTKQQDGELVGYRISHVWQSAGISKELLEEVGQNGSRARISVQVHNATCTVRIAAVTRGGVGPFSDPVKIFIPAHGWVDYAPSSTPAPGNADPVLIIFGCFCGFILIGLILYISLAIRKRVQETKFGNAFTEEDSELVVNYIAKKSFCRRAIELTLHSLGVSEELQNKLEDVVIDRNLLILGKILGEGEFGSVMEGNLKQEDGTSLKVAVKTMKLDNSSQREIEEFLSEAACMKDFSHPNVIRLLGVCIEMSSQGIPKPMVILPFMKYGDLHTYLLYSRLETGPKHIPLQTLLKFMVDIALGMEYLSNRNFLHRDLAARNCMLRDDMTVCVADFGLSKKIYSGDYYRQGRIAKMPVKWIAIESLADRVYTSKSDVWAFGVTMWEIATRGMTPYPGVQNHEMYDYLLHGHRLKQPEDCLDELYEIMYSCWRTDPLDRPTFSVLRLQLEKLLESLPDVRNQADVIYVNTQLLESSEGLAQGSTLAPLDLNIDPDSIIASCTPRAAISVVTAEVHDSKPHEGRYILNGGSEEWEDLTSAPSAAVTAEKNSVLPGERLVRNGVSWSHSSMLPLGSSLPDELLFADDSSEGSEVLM
Chain of EPHB1 (P54762 whole entry, looked up): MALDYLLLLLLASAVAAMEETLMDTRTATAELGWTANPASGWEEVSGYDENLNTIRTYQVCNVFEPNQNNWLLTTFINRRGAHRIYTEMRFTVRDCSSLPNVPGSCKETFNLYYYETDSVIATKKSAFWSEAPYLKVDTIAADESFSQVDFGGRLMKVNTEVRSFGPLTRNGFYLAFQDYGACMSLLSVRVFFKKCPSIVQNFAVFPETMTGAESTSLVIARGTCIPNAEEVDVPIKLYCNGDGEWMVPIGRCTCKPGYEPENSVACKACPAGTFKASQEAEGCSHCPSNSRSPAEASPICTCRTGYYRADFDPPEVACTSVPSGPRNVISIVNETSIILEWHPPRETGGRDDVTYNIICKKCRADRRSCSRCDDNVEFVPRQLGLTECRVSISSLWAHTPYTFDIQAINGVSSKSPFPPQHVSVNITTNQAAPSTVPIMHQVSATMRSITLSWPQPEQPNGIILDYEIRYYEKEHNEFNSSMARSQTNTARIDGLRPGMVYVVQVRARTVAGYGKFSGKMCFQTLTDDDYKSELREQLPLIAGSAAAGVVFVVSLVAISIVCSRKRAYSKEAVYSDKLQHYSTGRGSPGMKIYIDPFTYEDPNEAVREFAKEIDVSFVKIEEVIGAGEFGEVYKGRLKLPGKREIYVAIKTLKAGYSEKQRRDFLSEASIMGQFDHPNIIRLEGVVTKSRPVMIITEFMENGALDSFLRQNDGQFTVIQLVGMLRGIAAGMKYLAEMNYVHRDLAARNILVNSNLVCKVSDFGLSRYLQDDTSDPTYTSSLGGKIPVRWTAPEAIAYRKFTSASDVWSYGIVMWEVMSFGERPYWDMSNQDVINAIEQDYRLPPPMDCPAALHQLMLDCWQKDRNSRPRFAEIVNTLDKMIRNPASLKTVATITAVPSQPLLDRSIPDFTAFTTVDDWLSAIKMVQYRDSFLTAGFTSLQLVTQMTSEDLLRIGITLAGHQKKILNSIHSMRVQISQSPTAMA
Chain of Fes (P07332 whole entry, looked up): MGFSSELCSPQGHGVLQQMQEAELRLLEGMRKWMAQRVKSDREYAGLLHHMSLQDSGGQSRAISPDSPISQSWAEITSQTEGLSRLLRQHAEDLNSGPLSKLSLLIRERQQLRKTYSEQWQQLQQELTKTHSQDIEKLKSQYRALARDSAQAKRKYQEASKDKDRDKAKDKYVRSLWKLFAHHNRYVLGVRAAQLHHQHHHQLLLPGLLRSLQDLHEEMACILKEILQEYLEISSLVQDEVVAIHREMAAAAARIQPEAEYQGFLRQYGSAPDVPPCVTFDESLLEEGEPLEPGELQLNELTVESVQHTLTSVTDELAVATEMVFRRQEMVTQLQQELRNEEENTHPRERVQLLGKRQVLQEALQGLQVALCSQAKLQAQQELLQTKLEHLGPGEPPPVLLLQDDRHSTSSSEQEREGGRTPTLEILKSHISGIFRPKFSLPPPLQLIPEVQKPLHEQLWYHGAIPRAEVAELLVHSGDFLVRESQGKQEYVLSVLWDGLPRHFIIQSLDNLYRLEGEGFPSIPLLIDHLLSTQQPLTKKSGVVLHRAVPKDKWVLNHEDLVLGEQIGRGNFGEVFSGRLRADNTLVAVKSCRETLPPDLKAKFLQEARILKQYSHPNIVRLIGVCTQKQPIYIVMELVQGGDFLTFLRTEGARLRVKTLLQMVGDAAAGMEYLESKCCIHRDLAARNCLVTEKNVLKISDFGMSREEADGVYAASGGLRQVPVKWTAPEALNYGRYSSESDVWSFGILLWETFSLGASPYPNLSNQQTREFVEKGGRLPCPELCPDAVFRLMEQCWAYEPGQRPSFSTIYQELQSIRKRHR

Sequence	phosphorylation enrichment (AncSZ)	phosphorylation enrichment (EPHB1)	phosphorylation enrichment (EPHB2)	phosphorylation enrichment (FGFR1)	phosphorylation enrichment (FGFR3)	phosphorylation enrichment (Fer (mouse))	phosphorylation enrichment (Fes)	phosphorylation enrichment (Fyn)	phosphorylation enrichment (Hck)	phosphorylation enrichment (Jak2)	phosphorylation enrichment (MERTK)	phosphorylation enrichment (c-Abl (mouse))	phosphorylation enrichment (c-Src)	SH2 binding enrichment (Grb2 SH2)	SH2 binding enrichment (SHP2-C SH2)	SH2 binding enrichment (c-Src SH2)
LNERHYGGLTD [PGAM2_Y92_G97D]	1.18	1.1	0.83	0.977	1.12	0.7	0.663	0.975	1.08	0.457	0.629	0.605	0.515	0.98	0.773	0.528
LNPDGYEKAYE [CPXM2_Y427]	1.12	0.696	0.816	0.633	0.789	0.365	1.53	0.797	0.489	2.41	0.364	0.773	0.478	0.93	0.729	4.86
LNPLFYSLRNK [OR5R1_Y290_I289F]	0.552	0.396	0.537	0.481	0.737	0.75	0.773	0.511	0.475	0.468	0.395	0.363	0.348	1.5	2.19	0.74
LPKEQYLYTKE [AFG3L2_Y614]	1.3	0.895	0.574	0.789	0.998	0.75	1.42	0.634	0.767	1.41	0.792	1.48	0.913	0.75	0.643	0.597
LPPGEYVVVPS [CAPN1_Y494]	1.7	5.23	3.72	2.83	1.93	0.778	1.45	0.88	0.67	1.32	0.927	1.31	0.641	1.06	0.795	0.789
LQLLGDRPVFS [CHST6_Y358_Y358D_YF]	0.628	0.521	0.487	0.448	0.542	0.378	0.795	0.356	0.41	0.633	0.388	0.673	0.377	0.749	0.762	0.532
LREKVYASLEA [RXRA_Y397]	1.63	0.823	0.862	0.84	0.944	0.892	1.9	6.2	2.9	1.21	2.22	5.68	6.94	0.665	1.28	0.75
LRIAVYHEILI [CREBBP_Y1450_T1447I]	5.75	5.55	3.56	5.94	6.95	2.45	4.93	3.37	2.74	4.19	1.62	2.93	2.29	1.1	0.798	0.954
LRNRVYEVPVE [SLC26A3_Y756]	1.65	1.12	1.54	0.584	0.757	4.25	1.25	1.17	1.37	2.04	3.3	1.52	1.18	1.25	0.936	6.38
LSALDYKIFFF [WDPCP_Y210_YF]	1.5	0.588	0.71	0.753	0.833	0.672	1.05	0.418	0.585	0.991	0.332	0.725	0.717	0.84	1.54	0.557
LSDGPYSNSFE [EPOR_Y485_P488S_YF]	1.49	0.982	1.11	1.07	0.976	1.36	1.65	1.23	0.915	1.18	0.858	1.2	0.83	1	0.525	1.22
LSSEMCVKSFT [F5_Y2149_Y2149C_YF]	1.36	0.472	1.34	1.07	1.13	0.815	1.45	0.683	0.971	1.11	0.854	0.932	0.726	1	0.603	0.641
LSVEIHDRREY [ITGB7_Y753_Y753H]	1.09	0.55	0.54	0.414	0.633	0.473	1.08	0.336	0.463	1.12	0.336	0.823	0.438	0.733	0.473	0.429
LTQRTYMLENA [GPAA1_Y49_S51L]	0.843	0.783	0.541	0.866	0.929	0.468	1.01	0.858	0.547	0.64	0.536	0.623	0.479	0.988	1.06	0.747
LVGTPYWMAPE [PAK5_Y608]	0.91	0.775	0.437	2.09	1.84	0.573	1.15	0.683	0.459	1.14	0.856	0.694	2.71	0.76	1.58	0.673
LVQAEYWHDRI [PPT1_Y185_P189R]	1.16	0.684	0.896	3.27	2.08	0.706	1	0.396	0.605	1.25	0.522	0.868	0.603	0.699	0.511	0.685
LVVFEYMRHGD [NTRK1_Y591_M587V]	0.875	0.577	0.556	0.486	0.625	0.456	1.03	0.46	0.475	0.761	0.392	0.476	0.374	1.2	1.35	0.725
LWPIWYRCHRP [MRGPRX1_Y130]	1.86	0.721	0.893	1.04	1.02	0.702	1.63	0.798	0.699	1.17	0.804	1.15	0.466	1.09	1.06	0.416
LWPIWYRCRRP [MRGPRX1_Y130_H133R]	0.618	0.58	0.49	0.461	0.507	0.331	0.512	0.522	0.805	0.408	0.685	0.542	0.431	0.565	0.857	0.421
LYSINYLHFGD [KDM4C_Y201_E206D]	1.99	12.7	12.1	5.82	3.85	15.8	1.84	4.87	4.59	1.47	12.8	1.73	3.68	1.69	2.45	1.2
LYSNAYLNDLA [ALDH1A1_Y119]	0.831	0.853	0.685	0.484	0.776	4.03	0.914	1.19	1.45	0.667	5.82	0.396	1.1	4.68	0.613	1.84
LYVDVYGPSVP [NUBPL_Y109_D105Y]	1.48	3.63	1.09	2.8	2.02	2.21	1.32	2.02	2.85	0.977	2.27	0.902	2.15	0.705	0.695	0.578
MANFMYKAGPS [MAML2_Y515_YF]	0.947	0.367	0.525	0.378	0.44	0.386	0.68	0.383	0.39	0.739	0.339	0.534	0.41	1.03	0.838	0.593
MARDIYRASFF [ALK_Y1278_YF]	0.67	0.425	0.434	0.435	0.449	0.375	0.797	0.566	0.661	0.608	0.472	3.1	0.597	0.843	0.76	0.52
MCDKEYFSVHN [MET_Y1234_Y1230C_YF]	1.31	0.692	0.482	1.78	1.47	0.506	0.866	0.505	0.453	1.11	0.404	0.586	0.576	1.15	1.01	0.696
MCITQYERESQ [PRNP_Y218]	0.837	0.419	0.495	0.491	0.557	0.453	0.895	0.496	0.447	0.654	0.485	0.648	0.394	0.935	0.632	0.591
MDDKEYFSVHN [MET_Y1234_Y1230D_YF]	1.43	0.492	0.587	0.743	0.919	0.434	1.03	0.411	0.452	1.02	0.447	0.757	0.435	0.808	0.443	0.442
MDQAEYQAKIQ [DHX58_Y518_R523Q]	0.99	0.563	0.7	0.625	0.685	0.864	1.05	0.464	0.555	0.743	0.519	0.726	0.556	0.744	0.424	0.412
MEIHAYLKLLE [LMNA_Y376_R377L]	1.33	0.859	0.708	0.517	0.959	0.587	1.8	0.521	0.574	1.62	0.48	1.24	0.569	0.842	0.714	0.732

Reference: the supplement of paper PMC10065799, “High-throughput profiling of sequence recognition by tyrosine kinases and SH2 domains using bacterial peptide display” (eLife, 2023)
